Assay results taken from patent US20260103536A1.

Biological target: CD38 on cells (Raji, Daudi, REH, CD38-transfected HEK293) (human) (UniProt P28907)
Assay: flow cytometry on Raji cells; top asymptote fixed at about the maximum response of Darzalex

Adjusted* EC50: 1.27 nM
Substance: Darzalex® (CD38 control) (antibody)
